We go through 53 molecules from patent US20170260249A1 (IMMATICS BIOTECHNOLOGIES, published 2017).

This assay deals with HLA-A*02:01 (peptide-receptive MHC class I molecule, heavy chain with beta-2-microglobulin) (human). In words: UV-ligand exchange, anti-b2m ELISA; peptide exchange yield grade (>10% = +; >20% = ++; >50 = +++; >75% = ++++). The source says: Candidate peptides for T cell based therapies according to the present invention were further tested for their MHC binding capacity (affinity). The individual peptide-MHC complexes were produced by UV-ligand exchange, where a UV-sensitive peptide is cleaved upon UV-irradiation, and exchanged with the peptide of interest as analyzed. Only peptide candidates that can effectively bind and stabilize the peptide-receptive MHC molecules prevent dissociation of the MHC complexes. To determine the yield of the exchange reaction, an ELISA was performed based on the detection of the light chain (β2m) of stabilized MHC complexes. The assay was performed as generally described in Rodenko et al. (Rodenko et al., 2006).
96 well MAXISorp plates (NUNC) were coated over night with 2 ug/ml streptavidin in PBS at room temperature, washed 4× and blocked for 1 h at 37° C. in 2% BSA containing blocking buffer. Refolded HLA-A*02:01/MLA-001 monomers served as standards, covering the range of 15-500 ng/ml. Peptide-MHC monomers of the UV-exchange reaction were diluted 100 fold in blocking buffer. Samples were incubated for 1 h at 37° C., washed four times, incubated with 2 ug/ml HRP conjugated anti-β2m for 1 h at 37° C., washed again and detected with TMB solution that is stopped with […]. Absorption was measured at 450 nm. Candidate peptides that show a high exchange yield (preferably higher than 50%, most preferred higher than 75%) are generally preferred for a generation and production of antibodies or fragments thereof, and/or T cell receptors or fragments thereof, as they show sufficient avidity to the MHC molecules and prevent dissociation of the MHC complexes.

Regarding VLVSSVLGV (synthetic peptide; source gene SIGIRR) [VLVSSVLGV (SEQ ID NO: 22)], the peptide exchange yield was 50 to 75%. As to KLNSSIQYV (synthetic peptide; source gene PKHD1L1) [KLNSSIQYV (SEQ ID NO: 16)], the peptide exchange yield lay within 50 to 75%.

In the case of ALDPIIHGL (synthetic peptide; source gene PTPRG) [ALDPIIHGL (SEQ ID NO: 11)], the peptide exchange yield is > 75%.

Take SLLSELVEA (synthetic peptide; source gene KLHDC5) [SLLSELVEA (SEQ ID NO: 6)]: the peptide exchange yield is > 75%. Molecule SLYPGTETM (synthetic peptide; source gene SVIL) [SLYPGTETM (SEQ ID NO: 9)] returned a peptide exchange yield of 50 to 75%. For SVMELLQGV (synthetic peptide; source gene TRIM5) [SVMELLQGV (SEQ ID NO: 8)], the peptide exchange yield was > 75%.

As to VLNPETTVV (synthetic peptide; source gene PAPSS1) [VLNPETTVV (SEQ ID NO: 27)], the peptide exchange yield fell in the range of 50 to 75%.

For the molecule GLDGATYTV (synthetic peptide; source gene SEMA4C) [GLDGATYTV (SEQ ID NO: 3)], the peptide exchange yield fell in the range of 50 to 75%. For VLLHVSVLL (synthetic peptide; source gene ZDHHC24) [VLLHVSVLL (SEQ ID NO: 45)], the peptide exchange yield lay within 20 to 50%. For TLSTVIATV (synthetic peptide; source gene ATN1) [TLSTVIATV (SEQ ID NO: 50)], the peptide exchange yield is > 75%. Take TLSDVVVGL (synthetic peptide; source gene ELP4) [TLSDVVVGL (SEQ ID NO: 54)]: the peptide exchange yield fell in the range of 50 to 75%.

B1: GLGPNLVGV (SEQ ID NO: 23) (peptide)
peptide: GLGPNLVGV
notes: synthetic peptide; source genes SLC25A36, SLC25A33
Take B1: the peptide exchange yield was > 75%. In the case of AIAGRLLGV (synthetic peptide; source gene CLCN5) [AIAGRLLGV (SEQ ID NO: 34)], the peptide exchange yield is > 75%. For SLFDEVRQI (synthetic peptide; source gene STX18) [SLFDEVRQI (SEQ ID NO: 5)], the peptide exchange yield was > 75%. On to YIDDIFSGV (synthetic peptide; source gene TEX9) [YIDDIFSGV (SEQ ID NO: 41)], for which the peptide exchange yield is > 75%. For the molecule ALQNKVVAL (synthetic peptide; source gene NXNL2) [ALQNKVVAL (SEQ ID NO: 13)], the peptide exchange yield lay within 50 to 75%.

B2: ILLELFTHV (SEQ ID NO: 25) (peptide)
peptide: ILLELFTHV
notes: synthetic peptide; source genes FBXO6, FBXO44
Turning to B2, the peptide exchange yield is > 75%.

For RILDIDIPLSV (synthetic peptide; source gene TFCP2L1) [RILDIDIPLSV (SEQ ID NO: 38)], the peptide exchange yield lay within 50 to 75%.

With ALISEKLETL (synthetic peptide; source gene DNAJC10) [ALISEKLETL (SEQ ID NO: 52)], the peptide exchange yield was 50 to 75%. TLLDRVAVI (synthetic peptide; source gene FRG1B) [TLLDRVAVI (SEQ ID NO: 30)] yielded a peptide exchange yield of 50 to 75%.

For the molecule VLGPEGQLV (synthetic peptide; source gene GLYATL2) [VLGPEGQLV (SEQ ID NO: 21)], the peptide exchange yield was 50 to 75%. Consider FLVDSLISA (synthetic peptide; source gene HOXD10) [FLVDSLISA (SEQ ID NO: 14)], for which the peptide exchange yield was > 75%. Regarding TVPPVFVSV (synthetic peptide; source gene KCNMA1) [TVPPVFVSV (SEQ ID NO: 51)], the peptide exchange yield fell in the range of 50 to 75%.

In the case of GLLGGVIMMV (synthetic peptide; source gene SLC39A7) [GLLGGVIMMV (SEQ ID NO: 40)], the peptide exchange yield is > 75%. The molecule ALLTAVTNV (synthetic peptide; source gene LEMD2) [ALLTAVTNV (SEQ ID NO: 31)] came in with a peptide exchange yield of 50 to 75%.

Regarding VMHDSSFSV (synthetic peptide; source gene ADNP2) [VMHDSSFSV (SEQ ID NO: 53)], the peptide exchange yield was > 75%. On to VIANEIEKV (synthetic peptide; source gene APOL4) [VIANEIEKV (SEQ ID NO: 43)], for which the peptide exchange yield is 50 to 75%. GLIENTYQL (synthetic peptide; source gene RNF175) [GLIENTYQL (SEQ ID NO: 32)] returned a peptide exchange yield of 50 to 75%. With KLWEESTAQV (synthetic peptide; source gene C1orf173) [KLWEESTAQV (SEQ ID NO: 17)], the peptide exchange yield fell in the range of 50 to 75%. The molecule SMTTNLDLKV (synthetic peptide; source gene TMEM202) [SMTTNLDLKV (SEQ ID NO: 33)] yielded a peptide exchange yield of 20 to 50%. GLVEQLYDL (synthetic peptide; source gene NOC2L) [GLVEQLYDL (SEQ ID NO: 47)] yielded a peptide exchange yield of 50 to 75%.

ILDAQTAFV (synthetic peptide; source gene ABCC1) [ILDAQTAFV (SEQ ID NO: 24)] yielded a peptide exchange yield of 50 to 75%. As for VLLDIFTGV (synthetic peptide; source gene LIG3) [VLLDIFTGV (SEQ ID NO: 2)], the figure is > 75%; as for SLLSDIIAL (synthetic peptide; source gene PIGQ) [SLLSDIIAL (SEQ ID NO: 36)], 50 to 75%; as for ALAPSEGVQAA (synthetic peptide; source gene MSX1) [ALAPSEGVQAA (SEQ ID NO: 12)], > 75%.

With ILAETQPEL (synthetic peptide; source gene STX18) [ILAETQPEL (SEQ ID NO: 48)], the peptide exchange yield is 50 to 75%.

In the case of KLLDNLHDL (synthetic peptide; source gene PGR) [KLLDNLHDL (SEQ ID NO: 1)], the peptide exchange yield is > 75%.

In turn, SILSLLIKL (synthetic peptide; source gene UBR3) [SILSLLIKL (SEQ ID NO: 7)] showed a peptide exchange yield of 20 to 50%. As for SVLAGVVGV (synthetic peptide; source gene GUCY1A2) [SVLAGVVGV (SEQ ID NO: 26)], the peptide exchange yield is > 75%. Take RLDIQGTGQLL (synthetic peptide; source gene PIGR) [RLDIQGTGQLL (SEQ ID NO: 4)]: the peptide exchange yield is 50 to 75%. As to AILDVVVNL (synthetic peptide; source gene RFX3) [AILDVVVNL (SEQ ID NO: 10)], the peptide exchange yield is > 75%. IGIGPVLNI (synthetic peptide; source gene TMLHE) [IGIGPVLNI (SEQ ID NO: 29)] had a peptide exchange yield of 10 to 20%. As for NMDDVIYYV (synthetic peptide; source gene RNF145) [NMDDVIYYV (SEQ ID NO: 46)], the figure is 50 to 75%; as for FLNGLEILL (synthetic peptide; source gene MDN1) [FLNGLEILL (SEQ ID NO: 44)], > 75%; as for GLLSVELRV (synthetic peptide; source gene DCHS2) [GLLSVELRV (SEQ ID NO: 15)], > 75%. Then YLETMNITL (synthetic peptide; source gene PGM2L1) [YLETMNITL (SEQ ID NO: 19)], with 50 to 75%. ALDGKIYEL (synthetic peptide; source gene ARHGAP5) [ALDGKIYEL (SEQ ID NO: 39)] gave a peptide exchange yield of 50 to 75%. In turn, TLLPTLYEI (synthetic peptide; source gene RNF180) [TLLPTLYEI (SEQ ID NO: 35)] came in with a peptide exchange yield of 50 to 75%. On to ALLGFVTDL (synthetic peptide; source gene ATP2B4) [ALLGFVTDL (SEQ ID NO: 20)], for which the peptide exchange yield was > 75%.

The molecule GLDEAIRKV (synthetic peptide; source gene GLYATL2) [GLDEAIRKV (SEQ ID NO: 28)] yielded a peptide exchange yield of 50 to 75%. FLSGYYVTL (synthetic peptide; source gene TMEM101) [FLSGYYVTL (SEQ ID NO: 42)]: the peptide exchange yield was > 75%. Molecule VLLATVTEL (synthetic peptide; source gene SLC35E1) [VLLATVTEL (SEQ ID NO: 37)] yielded a peptide exchange yield of 50 to 75%. As to ALLELLHEL (synthetic peptide; source gene LEMD2) [ALLELLHEL (SEQ ID NO: 49)], the peptide exchange yield was > 75%.
